In patent publication US20240245805A1 (Orna Therapeutics, Inc., priority 2020, published 2024):

B1: Hunnivirus A1 (nucleic acid, listed as Hunnivirus sp.)
DNA: TAACGTTTGGCAAGAACCCTCACCTGTCAATTGGGACCACCACTTTCAGTGACCCCATGCGAAGTAGTGAGAGAGAATAAGCTTTCTTACCCTTCATTTGTGAACCCTTCAGTCGAAGCCGCTTGGAATAAGATAGGAGGAAAAGTTCATTCTAAATGGAGTGAAACATGTACTTCAGAATTTCTAGCACGCGCTGGGCTTTCTTGCGTGTGACGGCACTGTCTTGCCGGAGCTCTCCACACTGACACCCCACGCTTGTGGACCTTGGTGGCAGATGACAACACTGCAGCTGGAATTGAGTGTCTGGTACACTCTGTGTAACAGTGAAAACAATGTGATCACTTCGGTGAGCTAGTAGCCTGTGGACCAACAACTGGTAACAGTTGCCTCAGGGGCCAAAAGCCACGGTGTTTACAGCACCCTACTGGTTTGATTGGAGCAATCCAAGATGTCACAGAGTTAGTAATTGCCAAGCAGTCCGTACTGGTATCTTGACATACCGTGCAGTTTTGGATAGTGAAGGATGCCCTGACGGTACCCATAGGTAACAAGTGACACTATGGATCTAAGCAGGGGCTCACTCTACGCTGCTTTACAGCTGGCTGTGAGTTAAAAAACGTCTAGCTATCCACAACCTAGGGGACTAGGTTTTCCTTTTATTTAGATTACAATTAT
B2: VHEV (nucleic acid)
DNA: AATTCCTTCTTCCTTTCTCCTTGGACCTCGGTCCCCCGGTCTAAGCCGCTCGGAATATGACAGGGTTATTTTCACCTCTTCTCTCTTCTACTTCATAGTGTTCTATACTATGAAAGGGTATGTGTCGCCCCTTCCTTCTTGGAGAACGTGCGTGGCGGTCTTTCCGTCTCTCGAAAAACGTGCGTGCGACATGCAGAGTAACGCAAAGAAAGCAGTTCTTGGTCTAGCTCTGGTGCCCACAAGAAAACAGCTGTAGCGACCACACAAAGGCAGCGGAAACCCCCTCCTGGTAACAGGAGCCTCTGCGGCCAAAAGCCACGTGGATAAGATCCACCTTTGTGTGCGGTGCAACCCCAGCACCCTGGTTTCTTGGTGACACCTTAGTGAACCCTCGAATGGCAATCTCAAGCGCCTCTGTAGGAAAGCCAAGAATGTCCAGGAGGTACCCCTTCCTCATGGAGGGATCTGACCTGGAGACACATCACACGTGCTATACACTTGTGCTTGTGTTTAAAAATTGTCACAGCTTTCCCAAACCAAGTGGTCTTGGTTTTCCCTTAACTTCGAAAAGTCACTATGGCCTGCAAACATGGATACCCAGACGTGTGCCCT
modifications: source: /note="Description of Unknown: VHEV sequence"
B3: Hunnivirus A2 (nucleic acid, listed as Hunnivirus sp.)
DNA: ACAGTTTTTGACAAGGACCCTCACCTGTCAATCGGGACCACCACTTTCAGTGACCCCGTGCGAAGTGTTGAGAGAAAGTGAGCTTTCTTACCCTTCATTTGTGAACCCTTCAGTCGAAGCCGCTTGGAATAAGATGGAAGGAAATGTTCATTCTAAATGGAGTGAAACATATACTTAATTTCCAGTGTTTAGTGGTCTTTCCACTAGACAACGGCACTGTCTTGCCGGAACTCTACACACCAACATTCCACGCTTGTGGGACTCAAATGTTGGATGACACAGTTGTAGCTGGAACTGAGTGTTTAGTGCACTCTGTGTAACAGTGAAAACAATGTGATCACTTCGGTGGGCTAGTAGCCTGTGGACTAACAACTGGTAACAGTTGCCTCAGGGGCCAAAAGCCACGGTGTTAACAGCACCCTACTAGTTTGATTGGAGCAATCCATGATGTTACAGAGTTAGTAACTGCCAAACAGATTGTACTGGTATCTTGGCATACCGTGCAACTTAGGATAGTGAAGGATGCCCTGGCGGTACCCATAGGTAACAAGTGACACTATGGATCTAAACAGGGGCTCACTCTACGTTGCTTTACAACTAGCTGTGAGTTAAAAAACGTCTAACTATCCACAACCTAGGGGACTAGGTTTTCCTTTTTATTTTTATACACAACTA
B4: Taura Syndrome Virus: "an IRES is an IRES sequence of Taura syndrome virus" (nucleic acid)
DNA: CTTTAAAAGTCGTGCGTGGCTTCACCACGCACGATCAGTACTATCAGTTAACCACTCTTGAATATGCTCAATGACCCTATTCAACACTGGTGTCTCTTAGTACATTATTTTAGCACTTAACGTGCATGAGTTTTGCCCATTTCTTTCAAAAAAATGAGTATTCGAGGAGACGTCCCGCTCCCCGTCTTATTTCAACCGTAGACTCGACATCTATTGGTGGACATTTAATTCCAGTCGCCGTAAGTTGCTTCTGCCCCGCGCTATATTTTCTTATACTTATGGTTCTATAGGTCTGGTTTAAAACGTAAATAGACGGCCCACAAACTATAGAACGCGTACCCGGAACGCCAATCCCGGATAAGTCCCTGGATATATAGATGCACCGCAATATAAGCCTGCAGACTGTCTCATATACT
modifications: Taura Syndrome Virus
B5: Tottorivirus (nucleic acid, listed as Tottorivirus sp.)
DNA: CCCCTTTACGTAACTGCAACTTAAAGAGTACCCTACTGCATTGGATGTGTGGTAAACTTTTACGCACACATTTGTAGTAGTGTTAGTTATGTTCTACCTAATGAGTATGCATGCACCCGTCGAAACACGCTTGTGATAAGATAGGTGAGTCCATGTGACTAATCTCATTAAGATAAATAAGCACCCTACAACGCACGGCACGCTCGTGTCTTCCGTGCGGGGCCGGGACAACAGCGGCCTAAATCTTCTAGGTGACCACCATGCTTTTGGGACTATGGCACCACTGTGGACGTGAGTACCTGGCAGTAAGTCTGTGAAAAGATGGAAGGTGTCCCAAGCTATGGGGCGTATGCATATAGCCTGCGGAACAAACAACGGCGACGTTGTCCCCAGGGCCCAAAAGGCACGTGGATAAGATCCACCTATATGTTTACCCCATAGTGTAAGTCACTGGAAGTCCTAGTAATGGATGTCTGGAGTAAGGCTCACGGGGTAGGGCGAAGGATGCCCAGAAGGTACCCGTAGGTAACCTTAAGAGACTATGGATCTGATCTGGGGACCGGATGGCGCCATCACCATGACGTGGAGGCCGGTTTAAAAAACGTCTAAGCCCGACCAACAACCTAGGGGACTAGGTTTTCCTTTTTTATTCATGTATGACGTT
B6: TRV NGS910 (nucleic acid)
DNA: ATGCGACGTGGTTGGAGATTAAACCGACTCCGACGAAAGTGCTATCATGCCTCCCCGATTATGTGATGTTTTCTGCCCTGCTGGGCGGAGCATTCTCGGGTTGATACACCTTGAATCCTTCATCCTTGGACCTCAGGTCCCCCGGTCTAAGCCGCTTGGAATACGACAGGGTTATTTTCCAATCTTCTCCTTTCTACTTTCATGAGTCCTATTCATGAAAAGGGTCTGTGCTGCCCCTTCCTTCTTGGAGAATCTGCGCGGCGGTCTTTCCGTCTCTCGAAAAGCGCAGATGCAGCATGCTGGAACCGGTGAAGAAAACAGTTCTTTGTGGAAACTTAGAGCAGACATCGAAACAGCTGTAGTGACCTCACAGTAGCAGCGGAACCCCCTCCTGGTAACAGGAGCCTCTGCGGCCAAAAGCCCCGTGGATAAGATCCACTGCTGTGAGCGGTGCAACCCCAGCACCCTGGTTCGATGGTTGTTCTCTGTGGAACCAGAGAATGGTCTTTCTCAAGCCCTCCAGTAGAGAAGCCAAGAATGTCCTGAAGGTACCCCGCATGCGGGATCTGATCAGGAGACCAATCGTCAGTGCTTTACACTGGCGCTTTGGTTTAAAAACTGTCACAGCTTCTCCAAACCAAGTGGTCTTGGTTTTCACTTTTATCAAACTGTTTC
modifications: lipid formulation; source: /note="Description of Unknown: TRV NGS910 sequence"
B7: EV A114 (nucleic acid, listed as Enterovirus sp.)
chain: TGTGCGCCTGTTTTGAAACCCCCTCCCCCAACTCGAAACGTAGAAGTAATGTACACTACTGATCAGTAGCAGGCGTGGCGCACCAGCCATGTCTCGATCAAGCACTTCTGTTTCCCCGGACTGAGTATCAATAGACTGCTCACGCGGTTGAAGGTGAAAACGTCCGTTACCCGGCTAACTACTTCGAGAAACCTAGTAGCACCATAGAAACTGCAGAGTGTTTCGCTCAGCACTTCCCCCGTGTAGATCAGGTCGATGAGTCACTGCAATCCCCACGGGTGACCGTGGCAGTGGCTGCGTTGGCGGCCTGCCTATGGGGCAACCCATAGGACGCTCTAAGGTGGACATGGTGTGAAGAGTCTATTGAGCTAGTTAGTAGTCCTCCGGCCCCTGAATGCGGCTAATCCTAACTGTGGAGCGCATACTCCCAAACCAGGGAGCAGTGCGTCGTAACGGGCAACTCCGCAGCGGAACCGACTACTTTGGGTGTCCGTGTTTCCTTTTATTCCTATACTGGCTGCTTATGGTGACAATTGAGAGATTGTTACCATATAGCTATTGGATTGGCCATCCAGTGTGTAATAGAGCAATCATTTACCAATTTGTTGGATTTACTCCATTAACCCACACGTCTCTCAACACACTACATTTCATCTTACTACTGAACACTAGAAA
modifications: lipid formulation
B8: GFTV (nucleic acid)
chain: ATGGGGAAGGGTATGACGTGCCCCTTCCTTCTTCGGAGAACTCGCTCTAGTGGTCTTTCCACTTCTGGAAAAGAGTGAGTGCACGTGATCAGGACCGTCGAAGACGACAAATACCTGGTGCTCTATCTCATAGACGTTTCACAGCTGTAGCGACCCCTCAGTAGCAGCGGAAGCCCCCTCCTGGTGACAGGAGCCTCTGCGGCCAAAAGCCACGTGGATAAGATCCACTGCTGAGGGCGGTGCGACCCTAGCACCCTGTGATGCATACTAGTTGTAGCGTGCCGGACTATTGGTCTGTCATAAGACACCTGATAGAGAGACCAAGAATGTCCTGGAGGTACCCCGCGTGCGGGATCTGACCAGGAGACCATTGCCCAATGCTTTACAACGGGTCTATGGTTTAAAAACTGTCGCAGTCTCTCCAAACCAAGTGGTCTTGGTTTTCAATTACTTTGAATATTTCACT
modifications: lipid formulation; source: /note="Description of Unknown: GFTV sequence"
B9: Ia Io (nucleic acid)
DNA: GGTGTCCGGGTGTGTGGGATAGACCCAGATGTGCAGTGGATGCGAGCATTTGAGTCAGAGTAGGAGCAAGCCCAGGGGCAAAGGGACCACATTGTGTATCCCGAATGAAGGATCGAGATTTCTCTCCTCATTACCCGGTGTCTTGTCACTGTTGGGGGGGCCCAACAGTCTTAGTCCTATACTGCCTGATAGGGTCGCGGCTGGCCGGACTCAAGTGCTATAGTCAGTTGATTTTCACTC
modifications: source: /note="Description of Unknown: Ia Io sequence"

System: HEK293 cells
Format: cell-based, human
Conditions: circular RNA encoding Gluc with the listed IRES (UTR truncated to 675 nt) transfected into HEK293 cells; supernatant after 24 hours

Molecule	Expression (luminescence from secreted Gluc protein)
B1	1.61E+06
B2	1.74E+08
B3	6.38E+06
B4	8.30E+05
B5	2.76E+07
B6	3.84E+07
B7	1.50E+08
B8	1.23E+06
B9	1.35E+06
